From paper doi:10.1101/2024.03.22.586355, “Dynamic fibrillar assembly of αB-crystallin induced by perturbation of the conserved NT-IXI motif resolved by cryo-EM” (bioRxiv, 2024) come the findings set out here.

Data set [1] deals with the molecule itself. Nature of the data set: cryo-EM structure; αB-AXA fibrils elongated at room temperature for about four weeks, dialysed (1 MDa m.w.c.o.), 0.5 mg/mL; helical and local refinement with D2 symmetry, 3.4 Å.
Data set [2] concerns the molecule itself. Put plainly: SEC + other: negative-stain electron microscopy; Superose-6 24 mL column; peak fractions examined by negative-stain EM with 2D class averaging; 20 mM HEPES pH 7.4, 150 mM NaCl, 1 mM EDTA.

Numbering of substitutions follows the chain as printed.

B1: human αB-crystallin NT-AXA variant (natural protein, UniProt P02511 1-175, looked up)
chain: MDAAAHHPWIRRPFFPFHSPSRLFDQFFGEHLLESDLFPTSTSLSPFYLRPPSFLRAPSWFDTGLSEMRLEKDRFSVNLDVKHFSPEELKVKVLGDVIEVHGKHEERQDEHGFISREFHRKYRIPADVDPLTITSSLSSDGVLTVNGPRKQVSGPERTIPITREEKPAVTAAPKK
notes: human αB-crystallin (HSPB5, CRYAB), 20.2 kDa subunit; The cryo-EM model covers residues 75-161; the last 14 residues are not modelled; also called αB-AXA; source: E. coli BL21, purified (Sephacryl 300 SEC, MonoQ ion exchange), no purification tags
With B1, in data set [1], the binding result is given as “binds”.

B2: human wildtype αB-crystallin (natural protein, UniProt P02511 1-175, looked up)
chain: B1 chain with A3I, A5I
notes: human αB-crystallin (HSPB5, CRYAB), 20.2 kDa subunit; pET plasmid containing the human αB-crystallin gene; Polydisperse cage-like oligomers; also called αB-wt; αB-WT; source: E. coli BL21, purified (Sephacryl 300 SEC, MonoQ ion exchange), no purification tags
As to B2, the binding result in data set [2] is “binds”.
